For orientation: Kd means the equilibrium constant for the complex coming apart.

IL-6, sequence (P05231 30-212): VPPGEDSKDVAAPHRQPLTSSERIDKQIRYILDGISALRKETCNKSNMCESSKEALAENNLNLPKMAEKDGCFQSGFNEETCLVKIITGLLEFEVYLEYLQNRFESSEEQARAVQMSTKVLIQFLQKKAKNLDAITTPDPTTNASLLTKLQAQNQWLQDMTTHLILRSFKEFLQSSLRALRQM

The target of one data set is T1, Hyper-IL-6 (sIL-6R/IL-6 fusion) (UniProt P08887 20-323+P05231:30-212, internal_change). Briefly: filter binding.
For GGGUGUGUGGGUGGGU (structured_RNA) [rAID-1-G6U], the binding result is recorded as “no binding”.

In the case of GTTTGTGTTTGTGTGT (ssDNA) [NK3], the binding result is “no binding”.

As to GGGGAGGCUGUGGUGAUUG (structured_RNA) [AIR-3A-G17/18U], the binding result was “no binding”.

GGGAGGGTGGGTGGGT (structured_DNA) [AID-1-T4A] registered an equilibrium dissociation constant (Kd) of 420 ± 160 nM.

GTGGTGGGTGGGTGGGT (structured_DNA) [T30175] gave a Kd of 293 ± 94 nM.

Consider GGGTGGGTGGGTGGGA (structured_DNA) [AID-1-T16A], for which binding was put at a Kd of 693 ± 392 nM.

In the case of GGGTGGGTGGGTGGG (structured_DNA) [AID-1-T], the Kd came to 127 ± 79 nM.

GGGTGGGTGGGAGGGT (structured_DNA) [AID-1-T12A] came in with a Kd of 234 ± 71 nM.

In turn, GGGUGGGUGGGUGGG (structured_RNA) [rAID-1-U] registered a Kd of 199 ± 65 nM.

GGGUGGGUGGGUGGGU (structured_RNA) [rAID-1]: the affinity, expressed as Kd, was 208 ± 53 nM.

In the case of GGGGAGGCUGUGGUGAGGG (structured_RNA) [AIR-3A], the Kd is 82 ± 9 nM.

The molecule GGGTGGGTGGGTGGGT (structured_DNA) [AID-1 (T30923)] showed a Kd of 209 ± 96 nM.

GGGTGGGAGGGTGGGT (structured_DNA) [AID-1-T8A] returned a Kd of 316 ± 59 nM.

Another data set concerns the target IL-6 (human, UniProt P05231 30-212). Put plainly: filter binding.
Turning to GTGGTGGGTGGGTGGGT (structured_DNA) [T30175], the binding result was “no binding”.

As to GGGTGGGTGGGTGGGT (structured_DNA) [AID-1 (T30923)], the binding result is “no binding”.

The target of a further data set is T1, Hyper-IL-6 (sIL-6R/IL-6 fusion). Put plainly: filter binding. This is another data set of the same source.
In the case of GGGGTGGGGTGGGGTGGGGT (structured_DNA) [d(GGGGT)4], the binding result was “no binding”.

In the case of GTGTGTGTGTGTGTGT (ssDNA) [PolyGT], the binding result is recorded as “no binding”.

Regarding GGGTGGGTGTGTGGGT (structured_DNA) [AID-1-G10T], the binding result is on record as “no binding”.

For the molecule GTGTGGGTGGGTGGGT (structured_DNA) [AID-1-G2T], the binding result is reported as “no binding”.

Take GGTTGGGTGGGTGGGT (structured_DNA) [AID-1-G3T]: the binding result is listed as “no binding”.

Take TGGTGGGTGGGTGGGT (structured_DNA) [AID-1-G1T]: the binding result was “no binding”.

Regarding GGTTGGTGTGGTTGG (structured_DNA) [TBA], the binding result is recorded as “no binding”.

With GGGGAGGCUGUGGUGAUGG (structured_RNA) [AIR-3A-G17U], the binding result was “no binding”.

In the case of GGTGGTGGTGGT (structured_DNA) [d(GGT)4], the binding result is listed as “no binding”.

On to GGGTGAGTGGGTGAGT (ssDNA) [AID-1-G6A/G14A], for which the binding result is given as “no binding”.

For the molecule GGGTGTGTGGGTGGGT (structured_DNA) [AID-1-G6T], the binding result is “no binding”.

As for GGGTGGGTGGGTGTGT (structured_DNA) [AID-1-G14T], the binding result is recorded as “no binding”.

With GGGTGAGTGGGTGGGT (structured_DNA) [AID-1-G6A], the binding result was “no binding”.

The next data set concerns the target thrombin (UniProt P00734;P00734 328-363;364-622). Briefly: filter binding.
Regarding GGGTGGGTGGGTGGGT (structured_DNA) [AID-1 (T30923)], the binding result was “no binding”.

The target of another data set is T1, Hyper-IL-6 (sIL-6R/IL-6 fusion). Briefly: SPR. (SPR reads the build-up and loss of mass on a sensor chip optically.)
GGGTGGGTGGGTGGGT (structured_DNA) [AID-1 (T30923)]: binding was put at a Kd of 490 nM.

The target is the same in a further data set. Briefly: filter binding. The source holds these as a separate data set.
As to GGGAGGGAGGGAGGGA (structured_DNA) [AID-1+A], binding was characterised by a dissociation constant (Kd) of 691 ± 271 nM.

Source of the values: publication PMC3594281.
